B1: His-TFIIEβ/WT [not stated] / Flag-TFIIEα [not stated] (parent)
chain 1: MDPSLLRERELFKKRALSTPVVEKRSASSESSSSSSKKKKTKVEHGGSSGSKQNSDHSNGSFNLKALSGSSGYKFGVLAKIVNYMKTRHQRGDTHPLTLDEILDETQHLDIGLKQKQWLMTEALVNNPKIEVIDGKYAFKPKYNVRDKKALLRLLDQHDQRGLGGILLEDIEEALPNSQKAVKALGDQILFVNRPDKKKILFFNDKSCQFSVDEEFQKLWRSVTVDSMDEEKIEEYLKRQGISSMQESGPKKVAPIQRRKKPASQKKRRFKTHNEHLAGVLKDYSDITSSK
chain 2: MADPDVLTEVPAALKRLAKYVIRGFYGIEHALALDILIRNSCVKEEDMLELLKFDRKQLRSVLNNLKGDKFIKCRMRVETAADGKTTRHNYYFINYRTLVNVVKYKLDHMRRRIETDERDSTNRASFKCPVCSSTFTDLEANQLFDPMTGTFRCTFCHTEVEEDESAMPKKDARTLLARFNEQIEPIYALLRETEDVNLAYEILEPEPTEIPALKQSKDHAATTAGAASLAGGHHREAWATKGPSYEDLYTQNVVINMDDQEDLHRASLEGKSAKERPIWLRESTVQGAYGSEDMKEGGIDMDAFQEREEGHAGPDDNEEVMRALLIHEKKTSSAMAGSVGAAAPVTAANGSDSESETSESDDDSPPRPAAVAVHKREEDEEEDDEFEEVADDPIVMVAGRPFSYSEVSQRPELVAQMTPEEKEAYIAMGQRMFEDLFE

In this test the parent is B1. The test is described as follows: co-immunoprecipitation (IP of IIEα), immunoblot quantified. The conditions noted are these: with Flag-TFIIEα, n = 3, means ± s.d., read off a plot. (A western blot detects proteins with antibodies after separation by electrophoresis.)

Take chain 1 MDPSLLRERELFKKRALSTPVVEKRSASSESSSSSSKKKKTKVEHGGSSGSKQNSDHSNGSFNLKALSGSSGYKFGVLAKIVNYMKTRHQRGDTHPLTLDEILDETQHLDIGLKQKQWLMTEALVNNPKIEVIDGKYAFKPKYNVRDKKALLRLLDQHDQRGLGGILLEDIEEALPNSQKAVKALGYQILFVNRPDKKKILFFNDKSCQFSVDEEFQKLWRSVTVDSMDEEKIEEYLKRQGISSMQESGPKKVAPIQRRKKPASQKKRRFKTHNEHLAGVLKDYSDITSSK [chain 1 D187Y]: the screen value by setting is: (150 mM KCl) 0.85 a.u; (500 mM KCl) 0.45 a.u.
In the case of chain 1 MDPSLLRERELFKKRALSTPVVEKRSASSESSSSSSKKKKTKVEHGGSSGSKQNSDHSNGSFNLKALSGSSGYKFGVLAKIVNYMKTRHQRGDTHPLTLDEILDETQHLDIGLKQKQWLMTEALVNNPKIEVIDGKYAFKPKYNVRDKKPLLRLLDQHDQRGLGGILLEDIEEALPNSQKAVKALGDQILFVNRPDKKKILFFNDKSCQFSVDEEFQKLWRSVTVDSMDEEKIEEYLKRQGISSMQESGPKKVAPIQRRKKPASQKKRRFKTHNEHLAGVLKDYSDITSSK [chain 1 A150P], the screen value runs as follows: (150 mM KCl) 0.78 a.u; (500 mM KCl) 0.67 a.u.

The record behind these values is article PMC6504876, “TFIIE orchestrates the recruitment of the TFIIH kinase module at promoter before release during transcription” (Nature Communications, 2019).
